From paper PMC10936425 come the findings set out here.

The target of test [1] is K2-2 S424A mutant (not stated (bacteriophage of Klebsiella pneumoniae, phage not named)). Briefly: SEC-MALS; 100 microgram protein in 20 mM Tris pH 8.0, 100 mM NaCl, 0.02% NaN3; ENrich SEC 650 column, 0.5 ml/min.
The target of test [2] is K2-2 (phage tailspike protein, K2 capsular polysaccharide depolymerase), wild type with an N-terminal His-tag (not stated (bacteriophage of Klebsiella pneumoniae, phage not named)). The description is as above.
Test [3] has the same target. Briefly: crystal structure; N-terminally His-tagged K2-2 (wild type, and E323A soaked with 10 mM hydrolyzed K2 CPS products for 18 h); crystallised at 15°C, 0.1 M Bicine pH 9.0, 22% PEG-6000; space groups P2(1) and C2.
Test [4] concerns the target K2-2 E323A mutant (not stated (bacteriophage of Klebsiella pneumoniae, phage not named)). The description is as above.
Test [5] concerns the target K2-2 with a C-terminal His-tag (K2-2^C-His) (not stated (bacteriophage of Klebsiella pneumoniae, phage not named)). Briefly: SEC-MALS; 100 microgram protein in 20 mM Tris pH 8.0, 100 mM NaCl, 0.02% NaN3; ENrich SEC 650 column, 0.5 ml/min.
Test [6] shares this target. Nature of the test: crystal structure; K2-2^C-His crystallised at 15°C, 0.1 M Bicine pH 9.0, 10% PEG-4000, 10% polyacrylic acid 2100 sodium salt; Se-MAD phasing; space group P6(3).
Test [7] addresses K2-2 D515A mutant (not stated (bacteriophage of Klebsiella pneumoniae, phage not named)). Briefly: SEC-MALS; 100 microgram protein in 20 mM Tris pH 8.0, 100 mM NaCl, 0.02% NaN3; ENrich SEC 650 column, 0.5 ml/min. (In general: SEC sorts molecules by how far they enter the pores of the column.)

Several values for one entry are separate records, joined by “and”; a condition that tells them apart may be missing. Equal values may be shown once.

With K2-2 S424A mutant (enzyme), the stoichiometry N (as a rule, a count of units in the complex or per binding partner) in test [1] amounted to 3.

Turning to “K2-2 (phage tailspike protein, K2 capsular polysaccharide depolymerase), wild type with an N-terminal His-tag (enzyme)”, the stoichiometry N in test [2] and in test [3] was 3 in each case. Regarding K2-2 E323A mutant (enzyme), the stoichiometry N in test [4] turned out to be 3.

“K2-2 with a C-terminal His-tag (K2-2^C-His) (enzyme)”: the stoichiometry N was 4 and 3 in test [5]; 4 in test [6]. In test [7], K2-2 D515A mutant (enzyme) returned a stoichiometry N of 2.
